Measurements published in the RNAGym collection of RNA variant scans (doi:10.7554/elife.80360).

B1: Hammerhead Ribozyme (parent)
chain: ACCGGAUGUGCUUUCCGGUCUGAUGAGUCCGUGAGGACGAAACAG

Variants of: B1
Test: self-cleavage, relative activity (ratio to wild type); higher = more cleavage; co-transcriptional
For U7A A44C, the self-cleavage was 0.397. G27C U32G showed a self-cleavage of 0.705. For G22C G27U, the self-cleavage was 0.352. Variant A6G A40G has a self-cleavage of 0.213. For G8C G10C, the self-cleavage was 1.47. G8C G10U gave a self-cleavage of 1.25. In the case of A23C A42G, the self-cleavage is reported as 0.392. In the case of U7A A42C, the self-cleavage is reported as 0.358. G10A G33U gave a self-cleavage of 1.01. Variant G10A A26U has a self-cleavage of 0.925. Variant C2U A34G has a self-cleavage of 0.841. G5U G33U gave a self-cleavage of 1.06. G17C A34U showed a self-cleavage of 0.501. C2A G10C showed a self-cleavage of 0.662. Work on A6U G45A yielded a self-cleavage of 0.536. U21C C43U showed a self-cleavage of 0.487. With U7C C30U the self-cleavage was 0.842. U32G showed a self-cleavage of 0.769. With G22A G35A the self-cleavage was 0.336. G5A A41C gave a self-cleavage of 0.325. In the case of G10U U24A, the self-cleavage is reported as 1.01. With G17A G33C the self-cleavage was 0.713. A37G G45A showed a self-cleavage of 0.486. With G17C G27A the self-cleavage was 0.446. Variant U12A U32G has a self-cleavage of 0.878. Variant A40G A42U has a self-cleavage of 0.253. Variant C20G C29G has a self-cleavage of 0.35. With C16G C38A the self-cleavage was 0.453. U9G C30G showed a self-cleavage of 0.898. U32A A40G showed a self-cleavage of 0.312. Variant G8U U24A has a self-cleavage of 1.24. With G17C G25U the self-cleavage was 0.296. For C30A G35U, the self-cleavage was 1.17. In the case of C11A U21G, the self-cleavage is reported as 0.713. Variant G8A A23G has a self-cleavage of 0.325. With U19G U28A the self-cleavage was 0.411. For G10C C16A, the self-cleavage was 0.995. For G8A A37C, the self-cleavage was 1.06. In the case of U9C C11G, the self-cleavage is reported as 0.944. With C15U G36U the self-cleavage was 0.521. With U32C C43A the self-cleavage was 0.315. For U19G A23U, the self-cleavage was 0.23. A6C U28G gave a self-cleavage of 0.354. Work on G22A G27A yielded a self-cleavage of 0.342. G25C G27U showed a self-cleavage of 0.294. U9C G17U showed a self-cleavage of 0.897. C2U C29A showed a self-cleavage of 0.701. For A6C G35C, the self-cleavage was 0.391. U13C C29G gave a self-cleavage of 0.723. U14G G31C gave a self-cleavage of 0.967. With G17A C30G the self-cleavage was 0.476. A34C gave a self-cleavage of 0.909. Work on C3G A26U yielded a self-cleavage of 0.361. G5U A34C gave a self-cleavage of 0.833. Variant C20G U24A has a self-cleavage of 0.399. U7C G22A showed a self-cleavage of 0.387. U24C A34G showed a self-cleavage of 0.901. In the case of C15G A42U, the self-cleavage is reported as 0.328. U13G A37U gave a self-cleavage of 0.625. In the case of G4U A34U, the self-cleavage is reported as 0.43. For C15A U28A, the self-cleavage was 0.413. U12C G27U gave a self-cleavage of 0.581. U19A U24C gave a self-cleavage of 0.362. Work on A34U A40C yielded a self-cleavage of 0.404. With A6C A26C the self-cleavage was 0.348. In the case of G4A A42C, the self-cleavage is reported as 0.335. Work on C11G G39C yielded a self-cleavage of 0.541. For G31U A34C, the self-cleavage was 0.84. With A6G A42U the self-cleavage was 0.219. For U19A A41C, the self-cleavage was 0.391. For U13A C38G, the self-cleavage was 0.728. C15G A40U showed a self-cleavage of 0.358. Work on U12C A23U yielded a self-cleavage of 0.321. Work on G27U C38A yielded a self-cleavage of 0.785. Variant G27U C38U has a self-cleavage of 0.683. Variant A1C C2G has a self-cleavage of 0.524. U7A U24A showed a self-cleavage of 1.26. Work on U12A C38G yielded a self-cleavage of 0.719. Work on U7A G10U yielded a self-cleavage of 1.44. For C11U U12A, the self-cleavage was 1.3. A6U G35U showed a self-cleavage of 0.499. In the case of U24A G39A, the self-cleavage is reported as 0.382. For G10A C43A, the self-cleavage was 0.295. A6U A26U showed a self-cleavage of 0.588. Work on U19G A41C yielded a self-cleavage of 0.327. A37C A40U gave a self-cleavage of 0.268. A1G C29A showed a self-cleavage of 0.835. G25A G27C gave a self-cleavage of 0.355. For A23C G39C, the self-cleavage was 0.357. In the case of C15A G18A, the self-cleavage is reported as 0.323. For A1C U24G, the self-cleavage was 0.368. With C2G U24C the self-cleavage was 0.383. C2U U12G gave a self-cleavage of 1.21. Variant A26U G31C has a self-cleavage of 0.633. With G25A G35C the self-cleavage was 0.347. U19C U28G showed a self-cleavage of 0.435. G35C A41U gave a self-cleavage of 0.356. U7G U9A gave a self-cleavage of 1.19. Work on G17U G25U yielded a self-cleavage of 0.37. G35U C43G gave a self-cleavage of 0.34. For C29A, the self-cleavage was 0.708. In the case of A23U A34U, the self-cleavage is reported as 0.28. Work on A26G G35C yielded a self-cleavage of 0.35. Work on G36C A44G yielded a self-cleavage of 0.588. Variant G22C A41G has a self-cleavage of 0.31. For U21G G27U, the self-cleavage was 0.296. A6U U24G showed a self-cleavage of 0.642. In the case of A23G, the self-cleavage is reported as 0.439. Variant G10U A44G has a self-cleavage of 1.57. A1C A42C showed a self-cleavage of 0.336. G8U G18U showed a self-cleavage of 0.779. Work on U19C C38G yielded a self-cleavage of 0.407. Work on U21A C43A yielded a self-cleavage of 0.349. U9G G25A showed a self-cleavage of 0.205. Work on G10U C29G yielded a self-cleavage of 0.621. C3U C20G showed a self-cleavage of 0.306. A6G G8U showed a self-cleavage of 0.844. In the case of C16A G45C, the self-cleavage is reported as 0.501. C16A G45A showed a self-cleavage of 0.574. With U21G G39C the self-cleavage was 0.314. C20G C38G gave a self-cleavage of 0.239. In the case of C2A G18U, the self-cleavage is reported as 1.21. U13G G31C showed a self-cleavage of 0.943. In the case of U21C A37C, the self-cleavage is reported as 0.907. Variant C29G G39C has a self-cleavage of 0.317. With G4C C16A the self-cleavage was 1.65. Work on A23C G35C yielded a self-cleavage of 0.408. A6U G36A gave a self-cleavage of 0.44. Work on U14A A41C yielded a self-cleavage of 0.302. Work on U14A A41G yielded a self-cleavage of 0.28. With G27U G33A the self-cleavage was 0.754. Work on G10C G31A yielded a self-cleavage of 1.25. G31U A41G showed a self-cleavage of 0.364. Variant A1C U21G has a self-cleavage of 0.337. For G27A G36C, the self-cleavage was 0.316. G27A G36U gave a self-cleavage of 0.391. Work on C15U U28G yielded a self-cleavage of 0.568. For C3G C30A, the self-cleavage was 0.353. With G10A C11A the self-cleavage was 1.09. Work on G8C U19G yielded a self-cleavage of 0.428. In the case of U14C C20A, the self-cleavage is reported as 0.337. Work on U24C C43U yielded a self-cleavage of 0.404. For A26C A42U, the self-cleavage was 0.393. In the case of C16U U21A, the self-cleavage is reported as 0.698. In the case of C20U U21C, the self-cleavage is reported as 0.531. Work on U14A A37C yielded a self-cleavage of 0.815. Work on C2U U9A yielded a self-cleavage of 1.24. Work on U19C G45C yielded a self-cleavage of 0.519. U21A C29G showed a self-cleavage of 0.354. For U24C G39U, the self-cleavage was 0.333. Variant C3G A42C has a self-cleavage of 0.31. U7C G36C gave a self-cleavage of 0.348. G17A G18A showed a self-cleavage of 0.294. U14A C43U gave a self-cleavage of 0.41. A34C C43U gave a self-cleavage of 0.287. Variant G25C A34G has a self-cleavage of 0.332. For U24G A41G, the self-cleavage was 0.308. A1U C15U gave a self-cleavage of 0.55. In the case of C3G G35U, the self-cleavage is reported as 0.32. G4A U14A gave a self-cleavage of 0.49. Variant U9A C29U has a self-cleavage of 0.829. For U24G G33C, the self-cleavage was 0.81. In the case of C38A A41U, the self-cleavage is reported as 0.336. Variant U9A C20A has a self-cleavage of 0.438. Work on U13C U21G yielded a self-cleavage of 0.864. In the case of U7A G17A, the self-cleavage is reported as 0.498. With A23U U24A the self-cleavage was 0.58.
